Broadly, the IC50 is the concentration at which inhibition is half-maximal.

The target of experiment [1] is T1, human IL-11 (human, UniProt P20809 22-199).
T1 sequence: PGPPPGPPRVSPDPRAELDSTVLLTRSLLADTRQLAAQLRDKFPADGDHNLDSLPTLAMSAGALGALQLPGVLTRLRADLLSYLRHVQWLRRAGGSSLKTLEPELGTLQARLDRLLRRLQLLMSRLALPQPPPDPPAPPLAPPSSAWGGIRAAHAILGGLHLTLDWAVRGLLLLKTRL
In words: cell-based or functional assay.

Experiment [2] concerns the target T2, murine IL-11 (mouse, UniProt P47873 22-199).
T2 sequence: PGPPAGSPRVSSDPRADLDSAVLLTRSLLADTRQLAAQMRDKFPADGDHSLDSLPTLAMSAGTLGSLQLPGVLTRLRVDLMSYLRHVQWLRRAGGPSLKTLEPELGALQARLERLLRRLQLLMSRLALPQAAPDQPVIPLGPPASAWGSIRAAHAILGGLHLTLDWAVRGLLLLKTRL
In words: cell-based or functional assay.

Experiment [3] concerns the target T1, human IL-11. Briefly: cell-based or functional assay. The source holds these as a separate data set.
Experiment [4] deals with T2, murine IL-11. In words: cell-based or functional assay. This is another data set of the same source.
For experiment [5], the target named is T3, human IL-11 (human, UniProt P20809 22-199).
T3 sequence: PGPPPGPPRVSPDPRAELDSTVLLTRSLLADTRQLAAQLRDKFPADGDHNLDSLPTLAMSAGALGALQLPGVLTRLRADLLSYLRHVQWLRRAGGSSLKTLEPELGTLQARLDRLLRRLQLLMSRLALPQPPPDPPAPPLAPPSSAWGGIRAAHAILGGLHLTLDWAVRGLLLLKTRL
Briefly: cell-based or functional assay. This is another data set of the same source.

In experiment [6] the target is T4, murine IL-11 (mouse, UniProt P47873 22-199).
T4 sequence: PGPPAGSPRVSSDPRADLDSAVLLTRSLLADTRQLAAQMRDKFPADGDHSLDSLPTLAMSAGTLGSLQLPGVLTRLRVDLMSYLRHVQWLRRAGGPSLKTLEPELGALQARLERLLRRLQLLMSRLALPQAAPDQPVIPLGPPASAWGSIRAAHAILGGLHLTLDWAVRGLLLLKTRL
Briefly: cell-based or functional assay. This is another data set of the same source.

In experiment [7] the target is T3, human IL-11. Briefly: cell-based or functional assay. This is another data set of the same source.
The target in experiment [8] is T4, murine IL-11. In words: cell-based or functional assay. The source holds these as a separate data set.
Another experiment addresses T5, cynomolgus IL-11 (cynomolgus, UniProt P20808 22-199).
T5 sequence: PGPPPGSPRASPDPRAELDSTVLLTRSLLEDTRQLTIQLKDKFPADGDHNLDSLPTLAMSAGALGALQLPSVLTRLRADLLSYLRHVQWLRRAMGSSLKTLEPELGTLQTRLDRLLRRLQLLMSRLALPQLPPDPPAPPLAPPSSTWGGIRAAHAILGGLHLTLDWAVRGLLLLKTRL
In words: cell-based or functional assay.

In a further experiment the target is T6, rat IL-11 (rat, UniProt Q99MF5 22-199).
T6 sequence: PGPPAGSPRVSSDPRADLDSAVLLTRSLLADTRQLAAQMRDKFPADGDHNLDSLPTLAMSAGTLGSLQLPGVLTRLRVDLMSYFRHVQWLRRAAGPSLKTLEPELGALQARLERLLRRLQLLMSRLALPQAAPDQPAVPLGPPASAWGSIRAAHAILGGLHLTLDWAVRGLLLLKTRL
Briefly: cell-based or functional assay.

Experiment [9] concerns the target T3, human IL-11. Briefly: Tri-complex ELISA, hIL-11 + mIL-11Ra-Fc + hgp130-Fc, inhibition of complex formation. Here is the method: In the Tri-complex ELISA format IL-11 antibodies are tested for their ability to inhibit the formation of a complex consisting of murine or human gp130-Fc fusion protein, with murine or human IL-11, and a murine IL11RA-Fc fusion protein. The assay format was adapted according to FIG. 18 (a, b), depending on whether murine or human IL-11 IgG antibodies were tested.
(§1) IgG converted antibodies were subjected to the experimental assay procedure described in Example 19 and IC50 [M], respectively efficacy (%) were calculated accordingly.

Experiment [10] has as its target T4, murine IL-11. In words: Tri-complex ELISA, mIL-11 + mIL-11Ra-Fc + mgp130-Fc, inhibition of complex formation. Here is the method:
In a first step, 25 μl of goat anti human IgG (Sigma, #12136), diluted 1:1000 in coating buffer (Candor, #121125) was coated on the plate at 4° C. overnight. Next day, the plate was washed one time with 50 μl PBST and then blocked with 50 μl SmartBlock (Candor, #113125) for one hour at room temperature (RT). […] After three additional washes of the coated and blocked microtiter plate with PBS-T, 25 μl of each mixture were added and the assay plate was incubated for one hour at room temperature. After three additional washes, anti-mouse-gp130 biotinylated antibody (R&D, #BAF468) or anti-human gp130 biotinylated antibody (R&D, #BAF228), both 1:1000 in 10% SmartBlock PBS-T, was added and incubated for 1 hour at RT. After three additional washes, a Streptavidin-Peroxidase conjugate (Sigma, #S5512) 1:1000 in SmartBlock PBS-T was added and incubated for one hour at room temperature. After a final three washes, AmplexRed (Fisher Scientific, A12222), 1/1000 in PBS, 0,003% H₂O₂, was added as substrate and incubated for 15 min at RT in the dark. Then, the fluorescence was measured with a plate reader at 535/595 nm. Signals from dose responses were used to calculate IC50 values using GraphPad Prism software. Efficacy was calculated as [(signal measured at lowest antibody concentration−signal measured at the highest antibody concentration)×100] divided by (signal measured at lowest antibody concentration−signal measured in the absence of antibody at an IL11 concentration of 8.2E-11 [M]).
as §1
(ELISA stands for enzyme-linked immunosorbent assay.)

Where two headings read alike, the source gives them in different places.

B1: TPP-31286 (antibody, IgG4, V domains shown)
VH: QVQLLESGGGLVQPGGSLRLSCAASGFTFSHYDMNWLRQAPGKGLEWVGVISYDGSNKFYADFVKGRFTISRDNSKNTLYLQMNSLRAEDTAVYYCARTPGSHFDYWGQGTLVTVSS
VL: QSVLTQPPSASGTPGQRVTISCSGSSSNIGNNAVNWYQQLPGTAPKLLIYYDDLLPSGVPDRFSGSKSGTSASLAISGLRSEDEADYYCSAWDDSLNGVVFGGGTKLTVL
For the molecule B1, the “RGA potency (mean)” value with human IL-11 [1] and in the experiment with murine IL-11 [2] was under 170 nM in each case. Besides, the “IC50, RGA 1” value with human IL-11 [3] amounted to 59 nM; with murine IL-11 [4], 18 nM. For the same molecule, the “IC50, RGA 2” value with human IL-11 [3] was 37 nM; with murine IL-11 [4] it was 13 nM.

B2: TPP-31288 (antibody, IgG4, V domains shown)
VH: EVQLLESGGGVVQPGGSLRLSCAASGFTFSHYDMNWLRQAPGKGLEWVGVISYDGSNKFYADFVKGRFTISRDNSKNTLYLQMNSLRAEDTAVYYCARTPGSHFDYWGQGTLVTVSS
VL: QSVLTQPPSASGTPGQRVTISCSGSSSNIGNNAVNWYQQLPGTAPKLLIYYDDLLPSGVPDRFSGSKSGTSASLAISGLRSEDEADYYCSAWDDSLNGVVFGGGTKLTVL
As for B2, the “RGA potency (mean)” value with human IL-11 [1] and in the experiment with murine IL-11 [2] was under 170 nM each time. The results for the “IC50, RGA 1” value in the experiment with human IL-11 [3] and with murine IL-11 [4] were 67 nM and 47 nM, respectively. Further, the results for the “IC50, RGA 2” value with human IL-11 [3] and with murine IL-11 [4] were 141 nM and 23 nM, respectively.

B3: TPP-31287 (antibody, IgG4, V domains shown)
VH: EVQLVESGGGLVQPGGSLRLSCAASGFTFSHYDMNWLRQAPGKGLEWVGVISYDGSNKFYADFVKGRFTISRDNSKNTLYLQMNSLRAEDTAVYYCARTPGSHFDYWGQGTLVTVSS
VL: QSVLTQPPSASGTPGQRVTISCSGSSSNIGNNAVNWYQQLPGTAPKLLIYYDDLLPSGVPDRFSGSKSGTSASLAISGLRSEDEADYYCSAWDDSLNGVVFGGGTKLTVL
In the case of B3, the “RGA potency (mean)” value in the experiment with human IL-11 [1] and in the experiment with murine IL-11 [2] was under 170 nM each time. The “IC50, RGA 1” value in the experiment with human IL-11 [3] is 127 nM; in the experiment with murine IL-11 [4], 41 nM. Further, the “IC50, RGA 2” value was found to be 56 nM in the experiment with human IL-11 [3] and 15 nM with murine IL-11 [4].

B4: TPP-31289 (antibody, IgG4, V domains shown)
VH: EVQLLESGGGLVQPGRSLRLSCAASGFTFSHYDMNWLRQAPGKGLEWVGVISYDGSNKFYADFVKGRFTISRDNSKNTLYLQMNSLRAEDTAVYYCARTPGSHFDYWGQGTLVTVSS
VL: QSVLTQPPSASGTPGQRVTISCSGSSSNIGNNAVNWYQQLPGTAPKLLIYYDDLLPSGVPDRFSGSKSGTSASLAISGLRSEDEADYYCSAWDDSLNGVVFGGGTKLTVL
Consider B4, for which the “RGA potency (mean)” value with human IL-11 [1] and with murine IL-11 [2] was under 170 nM throughout. The “IC50, RGA 1” value was found to be 61 nM with human IL-11 [3] and 27 nM with murine IL-11 [4]. In addition, the entries for the “IC50, RGA 2” value with human IL-11 [3] and in the experiment with murine IL-11 [4] were 76 nM and 23 nM, respectively.

B5: TPP-23552 (antibody, human IgG1, kappa)
heavy: not shown
light: DIVLTQSPASLALSPGERATLSCRASKSVSTSGYSYIHWYQQKPGQPPRLLIYLASNLDSGVPARFSGSGSGTDFTLNIHPLEEEDFATYYCQHSRDLPPTFGQGTKLEIKRTVAAPSVFIFPPSDEQLKSGTASVVCLLNNFYPREAKVQWKVDNALQSGNSQESVTEQDSKDSTYSLSSTLTLSKADYEKHKVYACEVTHQGLSSPVTKSFNRGEC
notes: hIgG1, Kappa; also called BSN 3C6 (WO2019238882)
For B5, the “Efficacy (%), Stat3 reporter gene assay” value with human IL-11 [5] came out at 87.9%; with murine IL-11 [6] it was 76%; in the experiment with human IL-11 [7], 76.7%; in the experiment with murine IL-11 [8] it was 90.9%; with cynomolgus IL-11, 52.4%; in the experiment with rat IL-11, 81.3%. Further, the “IC50, Stat3 reporter gene assay” value turned out to be 18 nM in the experiment with human IL-11 [5]; 22 nM in the experiment with murine IL-11 [6]; 3.7 nM with human IL-11 [7]; 8.1 nM in the experiment with murine IL-11 [8]; 8.8 nM with rat IL-11. In addition, the “Efficacy (%)” value with human IL-11 [9] came to 90.6%; with murine IL-11 [10], 90.7%. In addition, the 50% inhibitory concentration (IC50) with human IL-11 [9] was found to be 6.8 nM; with murine IL-11 [10], 23 nM.

Values taken from patent publication US20240317847A1 (Bayer, published 2024).
